# Data published in the supplement of paper PMC10724198.
# ± gives the standard deviation of the averaged measurements.
# Tested on: Saccharomyces cerevisiae
# Test: protein stability index of tFT-peptide fusion (C-terminal peptide) (PSI (0-1 scale)); higher = more stable (slower turnover)
# Settings: temperature: 30 C
# Method: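 MPS profiling in S. cerevisiae of the yeast C-terminome library: the last 12 aa of each annotated ORF are fused to the C-terminus of a sfGFP-mCherry timer, after a GGGS linker. Cells are FACS-sorted into 8 mCherry/sfGFP bins and deep-sequenced. PSI runs from 0 (unstable) to 1 (stable); wild type and das1Δ backgrounds, two technical replicates each.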
# [1] = genetic background: das1 deletion
Sequence,protein stability index [1],protein stability index (genetic background: wild type)
KNFRNQYSLHPP [YHR095W C-terminal 12 aa],0.7047 ± 0.0045,0.6752 ± 0.0034
VEKDLVSVGSTW [NAR1 C-terminal 12 aa],0.676 ± 0.0024,0.7073 ± 0.0067
EKKKIFKGNKTD [YLR030W C-terminal 12 aa],0.696 ± 0.036,0.669 ± 0.012
DPEPPKEDPHDH [TCP1 C-terminal 12 aa],0.706 ± 0.0085,0.704 ± 0.051
LLISMIAAGILL [GAS2 C-terminal 12 aa],0.5322 ± 0.0015,0.551 ± 0.017
VATADIKNEDKN [BNA2 C-terminal 12 aa],0.671 ± 0.021,0.731 ± 0.066
DLLDKDVLLISE [CDC7 C-terminal 12 aa],0.706 ± 0.0095,0.6734 ± 0.0014
RVKSLKVGRKSQ [PAL1 C-terminal 12 aa],0.688 ± 0.02,0.684 ± 0.0082
KASNGHIELIGE [CRF1 C-terminal 12 aa],0.674 ± 0.002,0.699 ± 0.034
VRDHFGVINSIW [YJL070C C-terminal 12 aa],0.715 ± 0.051,0.694 ± 0.011
VNRQLEMDLPIE [YKL066W C-terminal 12 aa],0.7074 ± 0.0056,0.712 ± 0.042
YAWTRGLTNPIC [FEX1 C-terminal 12 aa],0.69727 ± 0.00064,0.69 ± 0.0087
HPRLCVFSCMMI [YJR128W C-terminal 12 aa],0.6901 ± 0.0059,0.67 ± 0.035
DTDGAKISIINN [FKH2 C-terminal 12 aa],0.7019 ± 0.0064,0.7033 ± 0.002
MIWKWLIEDKKN [MRS2 C-terminal 12 aa],0.72 ± 0.011,0.69 ± 0.052
SDEGHAHEDCAK [LOG1 C-terminal 12 aa],0.679 ± 0.011,0.669 ± 0.015
NKNKNKVTKGRR [RAD27 C-terminal 12 aa],0.668 ± 0.024,0.672 ± 0.026
FSSFKFLDTSYL [CKI1 C-terminal 12 aa],0.748 ± 0.0096,0.697 ± 0.048
KALRELQAEMGL [SNF7 C-terminal 12 aa],0.696 ± 0.0095,0.688 ± 0.025
LNKKREKKDETE [CSM1 C-terminal 12 aa],0.707 ± 0.038,0.718 ± 0.055
KRQGRTLYGFGG [YBR009C; YNL030W C-terminal 12 aa],0.7013 ± 0.0062,0.693 ± 0.021

Sequence,protein stability index [1],protein stability index (genetic background: wild type)
RQTKAFISKFMT [DBR1 C-terminal 12 aa],0.7208 ± 0.0027,0.682 ± 0.05
RSHRKQPLKRKD [BRE5 C-terminal 12 aa],0.69 ± 0.025,0.645 ± 0.019
IQTINEVRTNYM [RSE1 C-terminal 12 aa],0.69 ± 0.041,0.744 ± 0.11
TKSIFPSVNPSA [GPB2 C-terminal 12 aa],0.694 ± 0.02,0.669 ± 0.019
LCMSCGYVSAGK [YMR173W-A C-terminal 12 aa],0.697 ± 0.016,0.749 ± 0.046
EADFRKRFPSKV [PRK1 C-terminal 12 aa],0.694 ± 0.0081,0.669 ± 0.021
TTTGDKKSEEKQ [TCB2 C-terminal 12 aa],0.685 ± 0.027,0.69 ± 0.032
KRKFLGEHRKTL [TOK1 C-terminal 12 aa],0.713 ± 0.01,0.67338 ± 0.00061
GFRPAGATRFYS [YHR086W-A C-terminal 12 aa],0.6965 ± 0.0029,0.691 ± 0.016
IRRYPFLWIPFL [YMR316C-B C-terminal 12 aa],0.709 ± 0.04,0.147 ± 0.015
GESSINSSTRHA [CTK2 C-terminal 12 aa],0.683 ± 0.015,0.6853 ± 0.0058
GWYVGRYYRITR [IMD1 C-terminal 12 aa],0.714 ± 0.017,0.6944 ± 0.0055
LKALANETMSRI [VPS16 C-terminal 12 aa],0.712 ± 0.011,0.706 ± 0.049
YELDGPYMSKRI [ELP3 C-terminal 12 aa],0.6788 ± 0.0018,0.704 ± 0.062
TAFGISSCRDLA [YLR163W-A C-terminal 12 aa],0.707 ± 0.016,0.6829 ± 0.00097
SINGVNLELIKD [MIX14 C-terminal 12 aa],0.691 ± 0.041,0.635 ± 0.016
NGNNAESGETKQ [SSC1 C-terminal 12 aa],0.6813 ± 0.0068,0.6673 ± 0.0059
ESGLQSINESTL [ALY2 C-terminal 12 aa],0.7074 ± 0.0047,0.706 ± 0.05
HTSSKEIDLLSF [ENT3 C-terminal 12 aa],0.721 ± 0.026,0.7104 ± 0.0067
GAPANKRPRRGL [SMD1 C-terminal 12 aa],0.737 ± 0.026,0.7365 ± 0.0044
EDIKQALKQATN [CYS3 C-terminal 12 aa],0.6902 ± 0.0052,0.654 ± 0.023

Sequence,protein stability index [1],protein stability index (genetic background: wild type)
DSDADIEELLEE [PGA2 C-terminal 12 aa],0.696 ± 0.015,0.689 ± 0.046
MVEAAALKRNKK [ARO10 C-terminal 12 aa],0.686 ± 0.049,0.7161 ± 0.0026
TKLGEQRHLCTD [ESL2 C-terminal 12 aa],0.698 ± 0.019,0.7 ± 0.013
QAIEDKLNKMSR [BIL1 C-terminal 12 aa],0.686 ± 0.026,0.683 ± 0.018
TILLFYPPLLKR [YDR544C C-terminal 12 aa],0.627 ± 0.0074,0.6119 ± 0.0047
LYSLPISVPCTS [YDL086C-A C-terminal 12 aa],0.292 ± 0.013,0.313 ± 0.018
EKTVNFIKTFGV [GUT2 C-terminal 12 aa],0.6956 ± 0.0026,0.71 ± 0.035
VASSTEQLLQEM [DYN1 C-terminal 12 aa],0.67372 ± 0.00052,0.693 ± 0.029
FFSRVKSFKDPG [HRT3 C-terminal 12 aa],0.7153 ± 0.0048,0.688 ± 0.022
GIGFTNTSKKIA [RCL1 C-terminal 12 aa],0.708 ± 0.027,0.5373 ± 0.0012
QALFVLYYLYSI [YDR406W-A C-terminal 12 aa],0.428 ± 0.018,0.445 ± 0.013
TEIDESFEMTDF [KEX1 C-terminal 12 aa],0.723 ± 0.021,0.7471 ± 0.0064
LASEAAVGCNKS [YKL156C-A C-terminal 12 aa],0.688 ± 0.0092,0.745 ± 0.055
STSCDVIQSRNA [MET22 C-terminal 12 aa],0.71 ± 0.03,0.692 ± 0.0075
PVTPAVSKRYQP [YER084W C-terminal 12 aa],0.715 ± 0.0072,0.6939 ± 0.003
EAGDSDILTTLA [RPL30 C-terminal 12 aa],0.706 ± 0.024,0.687 ± 0.0078
RGRIAAQKRISA [RPL17B C-terminal 12 aa],0.681 ± 0.014,0.663 ± 0.016
KSLWDYVKKNTE [TAF14 C-terminal 12 aa],0.689 ± 0.046,0.712 ± 0.019
LLQVYDRVKASM [TOP3 C-terminal 12 aa],0.67 ± 0.00086,0.5992 ± 0.0013
TARPFPAPNIAA [YLR349W C-terminal 12 aa],0.728 ± 0.029,0.67 ± 0.016
RTHAMLNDIQNI [BNR1 C-terminal 12 aa],0.72 ± 0.022,0.721 ± 0.091

Sequence,protein stability index [1],protein stability index (genetic background: wild type)
AFFAVILLYIPG [YKR073C C-terminal 12 aa],0.287 ± 0.027,0.302 ± 0.018
LSFADYRKKLLK [SET3 C-terminal 12 aa],0.70897 ± 0.00015,0.689 ± 0.016
TTPTLPTFRTVA [FKS3 C-terminal 12 aa],0.686 ± 0.018,0.6971 ± 0.0014
RHAASLLGMSTK [VPS17 C-terminal 12 aa],0.714 ± 0.0089,0.762 ± 0.03
PLGEKFLNISNS [TEN1 C-terminal 12 aa],0.7047 ± 0.0035,0.694 ± 0.013
REVDDRFKVIYV [VPS35 C-terminal 12 aa],0.692 ± 0.018,0.695 ± 0.029
SNKLKGNPNQVF [MTG1 C-terminal 12 aa],0.721 ± 0.0079,0.75045 ± 0.00033
DFSKFKDSRLYD [YND1 C-terminal 12 aa],0.688 ± 0.034,0.671 ± 0.01
QTTRMLNDLIVS [MGA2 C-terminal 12 aa],0.664 ± 0.01,0.667 ± 0.017
YKTQTGNFQVRL [APM3 C-terminal 12 aa],0.706 ± 0.0095,0.722 ± 0.0093
PEKGSGFNTNLG [DCS2 C-terminal 12 aa],0.6973 ± 0.0014,0.738 ± 0.025
AFEELYMGNCND [SIR1 C-terminal 12 aa],0.7218 ± 0.0021,0.674 ± 0.035
MALLAMVMGVDM [URA2 C-terminal 12 aa],0.6024 ± 0.0046,0.676 ± 0.13
RHCARVKRSSRL [LYS1 C-terminal 12 aa],0.778 ± 0.024,0.823 ± 0.046
SRSSIKNIVKPK [MRX15 C-terminal 12 aa],0.689 ± 0.048,0.75 ± 0.052
EREGGDEHDDMA [PWP1 C-terminal 12 aa],0.684 ± 0.015,0.708 ± 0.035
YKNLRKTSSSHL [NPY1 C-terminal 12 aa],0.843 ± 0.028,0.84 ± 0.031
YIARNQKKGMSI [ECT1 C-terminal 12 aa],0.685 ± 0.011,0.67 ± 0.015
AKNGDYVKIEQP [YMR315W C-terminal 12 aa],0.6792 ± 0.0039,0.729 ± 0.019
